# Assay results as given in PMC8671415.
# Experiments:
# [1] = molecular target: RAGE peptide (Sino Biological), receptor for advanced glycation end products (UniProt Q15109); test: SPR; RANK or RAGE (5 μg/ml in 10 mM sodium acetate, pH 5.5) immobilised on the sensor chip; AOPPs 350 to 1050 μg/ml injected, 1050 μg/ml RSA as vehicle; 25 °C, 30 μl/min; PlexArray HT A100
# [2] = molecular target: RANK peptide (Sino Biological), receptor activator of nuclear factor κ B (UniProt Q9Y6Q6); test: as above
# Chain of UniProt Q9Y6Q6 (Q9Y6Q6 30-212): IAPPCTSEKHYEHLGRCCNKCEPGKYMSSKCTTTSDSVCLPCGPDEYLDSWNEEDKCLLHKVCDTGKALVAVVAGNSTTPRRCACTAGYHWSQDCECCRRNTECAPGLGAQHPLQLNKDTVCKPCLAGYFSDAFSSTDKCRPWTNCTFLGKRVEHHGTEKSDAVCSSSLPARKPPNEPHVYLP
# Chain of UniProt Q15109 (Q15109 23-342): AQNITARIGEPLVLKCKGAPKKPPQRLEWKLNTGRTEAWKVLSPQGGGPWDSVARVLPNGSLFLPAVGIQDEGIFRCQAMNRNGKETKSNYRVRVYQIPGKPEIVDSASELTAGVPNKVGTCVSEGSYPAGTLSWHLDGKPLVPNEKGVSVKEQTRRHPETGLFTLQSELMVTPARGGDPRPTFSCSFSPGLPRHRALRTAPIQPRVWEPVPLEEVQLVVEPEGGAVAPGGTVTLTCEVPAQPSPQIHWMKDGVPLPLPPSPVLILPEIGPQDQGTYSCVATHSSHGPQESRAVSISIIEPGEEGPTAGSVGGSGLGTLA
substance,measurement,setting,value
"Advanced oxidation protein products (AOPPs), prepared from rat serum albumin with hypochlorous acid (from UniProt P02770 25-608)",Kd,[1],1340 nM
same,Kd,[2],3020 nM
